This note sets out measurements from PMC6797804, “Histone H3K23-specific acetylation by MORF is coupled to H3K14 acylation” (Nature Communications, 2019).

As usually defined, the Kd is the constant that tells how readily two partners part at equilibrium. Lower therefore signals a tighter complex.

Ends that are not written are not given here. * marks the point of attachment. Crotonyl(E) = C/C=C/C(=O)*; Butyryl = CCCC(=O)*

Assay [1] deals with T1, MORF DPF domain (residues 211–322) F218A (human, UniProt Q8WYB5 211-322, F218A).
T1 construct: MORF (KAT6B) double PHD finger (DPF), residues 211–322; also called MORFDPF F218A mutant; source: E. coli Rosetta2 (DE3) pLysS, purified (glutathione Sepharose 4B, size exclusion)
T1 sequence (looked up): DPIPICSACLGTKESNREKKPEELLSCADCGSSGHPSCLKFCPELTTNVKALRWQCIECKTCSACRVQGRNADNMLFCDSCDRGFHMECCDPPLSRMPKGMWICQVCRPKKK
The assay can be described thus: other fluorescence titration; tryptophan fluorescence, 25 °C; 0.8–2 µM MORFDPF in PBS pH 6.5 with 5 mM DTT, increasing concentrations of H3 peptides (residues 1–19); excitation 295 nm. Conditions: both partners purified.

In assay [2] the target is T2, MORF DPF domain (residues 211–322), wild type (human, UniProt Q8WYB5 211-322).
T2 construct: MORF (KAT6B) double PHD finger (DPF), residues 211–322; The methods say the GST tag was either cleaved with thrombin or left on; also called WT MORFDPF; DPF domain of MORF; source: E. coli Rosetta2 (DE3) pLysS, purified (glutathione Sepharose 4B, size exclusion); unlabeled or 15N-labeled
T2 sequence (looked up): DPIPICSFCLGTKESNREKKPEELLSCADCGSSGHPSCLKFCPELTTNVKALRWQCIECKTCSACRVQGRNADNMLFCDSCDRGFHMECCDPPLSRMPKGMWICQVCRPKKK
Described as above. Conditions: both partners purified.

Assay [3] deals with T3, MORF DPF domain (residues 211–322) F287A (human, UniProt Q8WYB5 211-322, F287A).
T3 sequence (looked up): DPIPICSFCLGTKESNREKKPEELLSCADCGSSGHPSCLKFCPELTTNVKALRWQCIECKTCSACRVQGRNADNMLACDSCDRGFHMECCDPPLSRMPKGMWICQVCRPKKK
The assay can be described thus: cell-based or functional assay.

For assay [4], the target named is T3, MORF DPF domain (residues 211–322) F287A. Description: NMR titration; 1H,15N HSQC at 298 K; H3 peptides (residues 1–19) titrated into 0.1–0.25 mM 15N-labeled WT or mutated MORFDPF in 1×PBS pH 6.5, 5 mM DTT, 8–10% D2O. Conditions: both partners purified.

B1: histone H3K14bu peptide (residues 1–19 of H3) (peptide, UniProt P68431 2-20, looked up)
peptide: ARTKQTARKSTGGK(Butyryl)APRKQ
notes: histone H3 N-terminal tail, residues 1–19; source: synthetic peptide
On to B1, for which the binding result in assay [1] is on record as “binds”.

B2: histone H3K14cr peptide (residues 1–19 of H3) (peptide, UniProt P68431 2-20, looked up)
peptide: ARTKQTARKSTGGK(Crotonyl(E))APRKQ
notes: as for B1
Consider B2, for which the binding result in assay [1] is reported as “binds”. Also, in assay [2], the affinity, expressed as Kd, was 700 nM. In assay [3], the “HAT activity of the MORFN F287A complex against the wild-type MORFN complex on H3K14cr peptide (residues 1–29), liquid HAT assay” value was 2 fold.

B3: unmodified histone H3 peptide (residues 1–19 of H3) (peptide, UniProt P68431 2-20, looked up)
peptide: ARTKQTARKSTGGKAPRKQ
notes: as for B1
Take B3: the “fold decrease in binding against the WT protein” value in assay [4] was around 1000 fold.
